Experimental data from the RNAGym collection of RNA variant scans (doi:10.1021/acssynbio.7b00057).

B1: Pistol ribozyme (parent)
chain: GGGUCGUUGUUCCAUAAUCGCGUGGAUAUGGCACGCAAGUUUCUACCGGGCACCGUAAAUGUCCGACUGGAGCCGUUCGGGCGGCUAUAAACAGACCUCAGGCCCGAAGCGUGGCGGCACCUGCCGCCGGUGGUAAAAAAGAUCGGAAGAGCACACGUCU

Variants of: B1
Assay: aptazyme ON/OFF ratio, guanine; higher = stronger switching; co-transcriptional cleavage with and without guanine

Q: With U8C G9A U11G C13G as the variant, how does the “aptazyme ON/OFF ratio” value read?
A: The value was 1.27.

Q: Which “aptazyme ON/OFF ratio” value does the source give for U8C G9A U10G U11A C12A C13U here?
A: Its value is 1.15.

Q: With U8C G9A U10G U11A C12A C13A as the variant, how does the “aptazyme ON/OFF ratio” value read?
A: Its value is 1.14.

Q: With U8C G9A U10G U11A C12A C13G as the variant, how does the “aptazyme ON/OFF ratio” value read?
A: Its value is 1.12.

Q: With U8C G9A U10G U11G C12A as the variant, how does the “aptazyme ON/OFF ratio” value read?
A: The value was 1.12.

Q: With U8C G9A U10G U11G C12G as the variant, how does the “aptazyme ON/OFF ratio” value read?
A: Its value is 1.21.

Q: With U8C G9A U10G U11G C12U as the variant, how does the “aptazyme ON/OFF ratio” value read?
A: Its value is 1.24.

Q: For U8C G9A U10A U11A C12U C13U, which “aptazyme ON/OFF ratio” value is on record?
A: The value was 1.19.

Q: With U8C G9A U10A U11A C12U C13G as the variant, how does the “aptazyme ON/OFF ratio” value read?
A: The value was 1.18.

Q: With U8C G9A U10A U11A C12U C13A as the variant, how does the “aptazyme ON/OFF ratio” value read?
A: The value was 1.28.

Q: Which “aptazyme ON/OFF ratio” value does the source give for U8A U11A C12G C13G here?
A: The value was 1.06.

Q: For U8A U11A C12G C13U, which “aptazyme ON/OFF ratio” value is on record?
A: The value was 1.17.

Q: With U8A U11A C12G C13A as the variant, how does the “aptazyme ON/OFF ratio” value read?
A: Its value is 1.18.

Q: With U8C G9A U10A U11A C13G as the variant, how does the “aptazyme ON/OFF ratio” value read?
A: Its value is 1.07.

Q: With U8C G9A U10A U11A C13A as the variant, how does the “aptazyme ON/OFF ratio” value read?
A: Its value is 1.17.

Q: Which “aptazyme ON/OFF ratio” value does the source give for U8C G9A U10A U11A C13U here?
A: The value was 1.28.

Q: Which “aptazyme ON/OFF ratio” value does the source give for U8C G9A U10A C12A C13A here?
A: Its value is 1.17.

Q: With U8C G9A U10A C12A C13U as the variant, how does the “aptazyme ON/OFF ratio” value read?
A: Its value is 1.31.

Q: With U8C G9A U10A C12A C13G as the variant, how does the “aptazyme ON/OFF ratio” value read?
A: Its value is 1.13.

Q: Which “aptazyme ON/OFF ratio” value does the source give for U8C G9A here?
A: Its value is 1.78.

Q: Which “aptazyme ON/OFF ratio” value does the source give for U8C G9C here?
A: Its value is 1.12.

Q: Which “aptazyme ON/OFF ratio” value does the source give for U8C G9A U10A U11G C12G C13G here?
A: The value was 1.17.

Q: For U8C G9A U10A U11G C12G C13U, which “aptazyme ON/OFF ratio” value is on record?
A: The value was 1.14.

Q: Which “aptazyme ON/OFF ratio” value does the source give for U8C G9A U10A U11G C12G C13A here?
A: The value was 1.16.

Q: For U8A U11A C12U C13G, which “aptazyme ON/OFF ratio” value is on record?
A: Its value is 1.21.

Q: With U8A U11A C12U C13A as the variant, how does the “aptazyme ON/OFF ratio” value read?
A: Its value is 1.23.

Q: For U8A U11A C12U C13U, which “aptazyme ON/OFF ratio” value is on record?
A: The value was 1.18.

Q: Which “aptazyme ON/OFF ratio” value does the source give for U8C G9A U10C U11G C12U here?
A: Its value is 1.29.

Q: With U8C G9A U10C U11G C12G as the variant, how does the “aptazyme ON/OFF ratio” value read?
A: Its value is 1.27.

Q: Which “aptazyme ON/OFF ratio” value does the source give for U8C G9A U10C U11G C12A here?
A: Its value is 1.25.

Q: Which “aptazyme ON/OFF ratio” value does the source give for U8C G9A U10C U11G C13U here?
A: Its value is 1.35.

Q: For U8C G9A U10C U11G C13A, which “aptazyme ON/OFF ratio” value is on record?
A: The value was 1.2.

Q: Which “aptazyme ON/OFF ratio” value does the source give for U8C G9A U10C U11G C13G here?
A: The value was 1.44.

Q: With U8C G9A U10A C12U C13A as the variant, how does the “aptazyme ON/OFF ratio” value read?
A: The value was 1.16.

Q: Which “aptazyme ON/OFF ratio” value does the source give for U8C G9A U10A C12U C13G here?
A: Its value is 1.24.

Q: With U8C G9A U10A C12U C13U as the variant, how does the “aptazyme ON/OFF ratio” value read?
A: Its value is 1.33.

Q: Which “aptazyme ON/OFF ratio” value does the source give for U8A U11G C12G C13G here?
A: The value was 1.27.

Q: Which “aptazyme ON/OFF ratio” value does the source give for U8A U11G C12G C13U here?
A: The value was 1.47.

Q: For U8A U11G C12G C13A, which “aptazyme ON/OFF ratio” value is on record?
A: The value was 1.17.

Q: With U8A U11C C12U C13U as the variant, how does the “aptazyme ON/OFF ratio” value read?
A: The value was 1.37.

Q: Which “aptazyme ON/OFF ratio” value does the source give for U8A U11C C12U C13A here?
A: Its value is 1.38.

Q: With U8A U11C C12U C13G as the variant, how does the “aptazyme ON/OFF ratio” value read?
A: Its value is 1.33.

Q: For U8C G9A U10A U11G C13G, which “aptazyme ON/OFF ratio” value is on record?
A: Its value is 1.08.

Q: For U8C G9A U10A U11G C13A, which “aptazyme ON/OFF ratio” value is on record?
A: The value was 1.19.

Q: With U8C G9A U10A U11G C13U as the variant, how does the “aptazyme ON/OFF ratio” value read?
A: The value was 1.18.

Q: For U8A U11A C13A, which “aptazyme ON/OFF ratio” value is on record?
A: The value was 1.19.

Q: With U8A U11A C13G as the variant, how does the “aptazyme ON/OFF ratio” value read?
A: Its value is 1.05.

Q: With U8A U11A C13U as the variant, how does the “aptazyme ON/OFF ratio” value read?
A: Its value is 1.15.

Q: For U8C G9A U10C U11A C12G C13U, which “aptazyme ON/OFF ratio” value is on record?
A: Its value is 1.19.

Q: Which “aptazyme ON/OFF ratio” value does the source give for U8C G9A U10C U11A C12G C13A here?
A: Its value is 1.23.

Q: With U8C G9A U10C U11A C12G C13G as the variant, how does the “aptazyme ON/OFF ratio” value read?
A: The value was 1.5.

Q: Which “aptazyme ON/OFF ratio” value does the source give for U8C G9A U10C U11A C12A C13G here?
A: The value was 1.27.

Q: Which “aptazyme ON/OFF ratio” value does the source give for U8C G9A U10C U11A C12A C13U here?
A: Its value is 1.19.

Q: Which “aptazyme ON/OFF ratio” value does the source give for U8C G9A U10C U11A C12A C13A here?
A: Its value is 1.23.

Q: With U8C G9A U10C C12G C13G as the variant, how does the “aptazyme ON/OFF ratio” value read?
A: Its value is 1.4.

Q: With U8C G9A U10C C12G C13A as the variant, how does the “aptazyme ON/OFF ratio” value read?
A: The value was 1.18.

Q: With U8C G9A U10C C12G C13U as the variant, how does the “aptazyme ON/OFF ratio” value read?
A: The value was 1.25.

Q: For U8C G9A U10G U11C C12A, which “aptazyme ON/OFF ratio” value is on record?
A: Its value is 1.23.

Q: With U8C G9A U10G U11C C12G as the variant, how does the “aptazyme ON/OFF ratio” value read?
A: Its value is 1.23.

Q: Which “aptazyme ON/OFF ratio” value does the source give for U8C G9A U10G U11C C12U here?
A: Its value is 1.07.

Q: Which “aptazyme ON/OFF ratio” value does the source give for U8A U11G C12G here?
A: Its value is 1.18.

Q: For U8A U11G C12U, which “aptazyme ON/OFF ratio” value is on record?
A: The value was 1.28.

Q: Which “aptazyme ON/OFF ratio” value does the source give for U8A U11G C12A here?
A: The value was 1.09.

Q: Which “aptazyme ON/OFF ratio” value does the source give for U8C G9A U10C U11A C12U C13G here?
A: Its value is 1.33.

Q: Which “aptazyme ON/OFF ratio” value does the source give for U8C G9A U10C U11A C12U C13A here?
A: The value was 1.37.

Q: For U8C G9A U10C U11A C12U C13U, which “aptazyme ON/OFF ratio” value is on record?
A: The value was 1.28.

Q: With U8C G9A U10A U11A C12G C13U as the variant, how does the “aptazyme ON/OFF ratio” value read?
A: The value was 1.21.

Q: Which “aptazyme ON/OFF ratio” value does the source give for U8C G9A U10A U11A C12G C13G here?
A: The value was 1.17.

Q: With U8C G9A U10A U11A C12G C13A as the variant, how does the “aptazyme ON/OFF ratio” value read?
A: The value was 1.15.

Q: For U8C G9A U10G C12G C13U, which “aptazyme ON/OFF ratio” value is on record?
A: The value was 1.22.

Q: For U8C G9A U10G C12G C13A, which “aptazyme ON/OFF ratio” value is on record?
A: The value was 1.14.

Q: Which “aptazyme ON/OFF ratio” value does the source give for U8C G9A U10G C12G C13G here?
A: Its value is 1.11.

Q: For U8C G9A U11A C13U, which “aptazyme ON/OFF ratio” value is on record?
A: Its value is 1.22.

Q: For U8C G9A U11A C13A, which “aptazyme ON/OFF ratio” value is on record?
A: Its value is 1.2.

Q: For U8C G9A U11A C13G, which “aptazyme ON/OFF ratio” value is on record?
A: Its value is 1.04.

Q: Which “aptazyme ON/OFF ratio” value does the source give for U8C G9A U11A C12A C13G here?
A: Its value is 1.13.

Q: Which “aptazyme ON/OFF ratio” value does the source give for U8C G9A U11A C12A C13A here?
A: The value was 1.15.

Q: Which “aptazyme ON/OFF ratio” value does the source give for U8C G9A U11A C12A C13U here?
A: Its value is 1.34.

Q: With U8A U11C C13G as the variant, how does the “aptazyme ON/OFF ratio” value read?
A: Its value is 1.08.

Q: With U8A U11C C13U as the variant, how does the “aptazyme ON/OFF ratio” value read?
A: Its value is 1.09.

Q: For U8A U11C C13A, which “aptazyme ON/OFF ratio” value is on record?
A: The value was 1.13.

Q: With U8C G9A U11A C12G as the variant, how does the “aptazyme ON/OFF ratio” value read?
A: The value was 1.18.

Q: Which “aptazyme ON/OFF ratio” value does the source give for U8C G9A U11A C12A here?
A: Its value is 1.25.

Q: Which “aptazyme ON/OFF ratio” value does the source give for U8C G9A U11A C12U here?
A: The value was 1.1.
